From patent publication US20200317768A1 (published 2020)
Positions count from the first letter of the chain named.

T1: human FcγRIIaH extracellular domain, C-terminal His-tag (human, UniProt P12318 34-217)
T1 construct: Soluble extracellular domain expressed in FreeStyle 293 cells; also called FcgRIIaH; human FcγRIIa (type H); not shown: His-tag added to the C-terminus
T1 sequence: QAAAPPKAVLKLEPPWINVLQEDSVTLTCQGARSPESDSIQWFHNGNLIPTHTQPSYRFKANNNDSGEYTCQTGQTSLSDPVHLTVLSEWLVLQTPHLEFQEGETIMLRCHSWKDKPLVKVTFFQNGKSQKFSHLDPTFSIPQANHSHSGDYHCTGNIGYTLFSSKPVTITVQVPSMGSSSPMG

T2: human FcγRIIb extracellular domain, C-terminal His-tag (human, UniProt P31994 43-217)
T2 construct: Soluble extracellular domain expressed in FreeStyle 293 cells; also called FcgRIIb; not shown: His-tag added to the C-terminus
T2 sequence: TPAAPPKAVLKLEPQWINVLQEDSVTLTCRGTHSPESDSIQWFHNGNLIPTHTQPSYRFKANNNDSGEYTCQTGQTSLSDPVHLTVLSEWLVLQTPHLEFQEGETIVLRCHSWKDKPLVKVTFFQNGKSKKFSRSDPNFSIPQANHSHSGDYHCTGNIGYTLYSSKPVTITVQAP

T3: human FcγRIIaR extracellular domain, C-terminal His-tag (human, UniProt P12318 34-217)
T3 construct: Soluble extracellular domain expressed in FreeStyle 293 cells; also called FcgRIIaR; human FcγRIIa (type R); not shown: His-tag added to the C-terminus
T3 chain: T1 sequence with H134R

B1: MS103240H795-TT69/M103202L1045-SK1 (antibody)
heavy: QVQLVESGGGLVQPGGSLRLSCAVSGIDLSHDDISWVRQAPGKGLEWVSIISYAGSTYYASWAKGRLTISKDTSKNQVVLTMTNMDPVDTATYYCARGVPAYSHGGDLWGQGTLVTVSSASTKGPSVFPLAPSSKSTSGGTAALGCLVKDYFPEPVTVSWNSGALTSGVHTFPAVLQSSGLYSLSSVVTVPSSSLGTQTYICNVNHKPSNTKVDKKVEPKSCDKTHTCPPCPAPELLGGDSVFLFPPKPKDVLMISRTPEVTCVVVDVSHEDPEVKFNWYVDGVEVHNAKTKPREEQYNSTYRVVSVLPVLHRDWLNGKEYKCKVSNKALPKPIEKTISKAKGQPREPQVYTLPPSREEMTKNQVSLTCLVKGFYPSDIAVEWESNGQPENNYKTTPPVLDSDGSFFLYSKLTVKKSRWQQGNVFSCSVLHEALHAHTTRKELSLSP
light: DIVMTQSPATLSLSPGERATLSCTTSQSVYHENWLSWFQQKPGQPPKLLIYWASTLAYGVPSRFSGSGSGTDFTLTISSLQPEDAATYYCAGGYGGGRYAFGQGTKVEIKRTVAAPSVFIFPPSDEQLKSGTASVVCLLNNFYPREAKVQWKVDNALQSGNSQESVTEQDSKDSTYSLSSTLTLSKADYEKHKVYACEVTHQGLSSPVTKSFNRGEC
notes: copies: 2 + 2
B2: MS103240H795-TT91/M103202L1045-SK1 (antibody)
heavy: B1 heavy with L236Y, V266I, P345R, K415D
light: B1 light
B3: MS103240H795-TT93/M103202L1045-SK1 (antibody)
heavy: B1 heavy with L236Y, V266I
light: B1 light
notes: copies: 2 + 2
B4: MS103240H795-TT90/M103202L1045-SK1 (antibody)
heavy: B1 heavy with L236Y, V266I, P345R, K415D, L430M, T438Y
light: B1 light
B5: MS103240H795-TT73/M103202L1045-SK1 (antibody)
heavy: B1 heavy with V266I
light: B1 light
notes: copies: 2 + 2
B6: MS103240H795-TT71/M103202L1045-SK1 (antibody)
heavy: B1 heavy with V266I, P345R, K415D
light: B1 light
B7: MS103240H795-TT72/M103202L1045-SK1 (antibody)
heavy: B1 heavy with V266I, L430M, T438Y
light: B1 light
notes: copies: 2 + 2
B8: MS103240H795-TT92/M103202L1045-SK1 (antibody)
heavy: B1 heavy with L236Y, V266I, L430M, T438Y
light: B1 light
notes: copies: 2 + 2
B9: MS103240H795-TT70/M103202L1045-SK1 (antibody)
heavy: B1 heavy with V266I, P345R, K415D, L430M, T438Y
light: B1 light

molecular target: T1, human FcγRIIaH extracellular domain, …; assay: SPR (BIACORE), antibody captured by mouse anti-human IgG kappa light chain, FcgR extracellular domain as analyte, 25 C
Procedure: (§1) The kinetic analysis of interactions between these antibodies and FcγR was carried out using BIACORE® T200 or BIACORE® 4000 (GE Healthcare). HBS-EP+ (GE Healthcare) was used as the running buffer, and the measurement temperature was set to 25° C. A chip produced by immobilizing Protein A. Protein A/G or mouse anti-human IgG kappa light chain (BD Biosciences) onto a Series S Sensor Chip CM4 or CM5 (GE Healthcare) by the amine-coupling method was used. […] After the measurement, the antibody captured on the chip was washed off by allowing reaction with 10 mM glycine-HCl, pH1.5 and 25 mM NaOH so that the chip was regenerated and used repeatedly. The sensorgrams obtained as measurement results were analyzed by the 1:1 Langmuir binding model using the BIACORE® Evaluation Software to calculate the binding rate constant ka (L/mol/s) and dissociation rate constant kd (l/s), and the dissociation constant KD (mol/L) was calculated from these values. […] Regarding such interactions, KD values were calculated using the following 1:1 binding model described in BIACORE® T100 Software Handbook BR1006-48 Edition AE.
(§2) Furthermore, the substitutions used in Example 29 for improving antibody half-life and reducing binding to rheumatoid factor were introduced into human FcγRIIb-enhanced Fc variants and their affinity against human FcγRs were analyzed (Table 29). In this SPR analysis, all the data were obtained using mouse anti-human IgG kappa light chain for capturing the antibodies of interest.

| Kd [µM] | Binder |
| --- | --- |
| 130 | B1 |
| 46 | B2 |
| 52 | B3 |
| 29 | B4 |
| 74 | B5 |
| 96 | B6 |
| 79 | B7 |
| 40 | B8 |
| 72 | B9 |

molecular target: T2, human FcγRIIb extracellular domain, …; assay: as above
Procedure: as §1, §2

| Kd [µM] | Binder |
| --- | --- |
| 1.1 | B1 |
| 0.32 | B2 |
| 0.31 | B3 |
| 0.3 | B4 |
| 0.42 | B5 |
| 0.42 | B6 |
| 0.4 | B7 |
| 0.28 | B8 |
| 0.37 | B9 |

Molecular target: T3, human FcγRIIaR extracellular domain, …
Assay: as above
Procedure: as §1, §2

| Kd [µM] | Binder |
| --- | --- |
| 34 | B1 |
| 30 | B2 |
| 24 | B3 |
| 25 | B4 |
| 19 | B5 |
| 27 | B6 |
| 24 | B7 |
| 20 | B8 |
| 40 | B9 |

molecular target: T4, human FcγRIIIaV extracellular domain, C-terminal His-tag (human, UniProt P08637 17-208); assay: as above
T4 construct: Soluble extracellular domain expressed in FreeStyle 293 cells; also called FcgRIIIaV; not shown: His-tag added to the C-terminus
T4 sequence (P08637 17-208 F176V): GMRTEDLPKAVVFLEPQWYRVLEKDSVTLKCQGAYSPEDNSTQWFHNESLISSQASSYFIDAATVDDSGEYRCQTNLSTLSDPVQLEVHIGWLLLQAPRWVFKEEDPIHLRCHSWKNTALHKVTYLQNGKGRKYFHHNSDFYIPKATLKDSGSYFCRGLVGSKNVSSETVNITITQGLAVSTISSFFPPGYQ
Procedure: as §1, §2

| Kd [µM] | Binder |
| --- | --- |
| 530 | B1 |
| 450 | B2 |
| 470 | B3 |
| 360 | B4 |
| 550 | B5 |
| 400 | B6 |
| 500 | B7 |
| 490 | B8 |
| 390 | B9 |

molecular target: T1, human FcγRIIaH extracellular domain, …; assay: SPR (BIACORE); KD of SG1 divided by KD of the variant
Procedure: as §1, §2

| KD fold for humanFcgRs (SG1 = 1) [fold] | Binder |
| --- | --- |
| 0.008 | B1 |
| 0.021 | B2 |
| 0.019 | B3 |
| 0.033 | B4 |
| 0.013 | B5 |
| 0.01 | B6 |
| 0.012 | B7 |
| 0.024 | B8 |
| 0.013 | B9 |

molecular target: T2, human FcγRIIb extracellular domain, …; assay: as above
Procedure: as §1, §2

| KD fold for humanFcgRs (SG1 = 1) [fold] | Binder |
| --- | --- |
| 4.3 | B1 |
| 14.7 | B2 |
| 15.2 | B3 |
| 15.7 | B4 |
| 11.2 | B5 |
| 11.2 | B6 |
| 11.8 | B7 |
| 16.8 | B8 |
| 12.7 | B9 |

Molecular target: T3, human FcγRIIaR extracellular domain, …
Assay: as above
Procedure: as §1, §2

| KD fold for humanFcgRs (SG1 = 1) [fold] | Binder |
| --- | --- |
| 0.04 | B1 |
| 0.04 | B2 |
| 0.05 | B3 |
| 0.05 | B4 |
| 0.06 | B5 |
| 0.04 | B6 |
| 0.05 | B7 |
| 0.06 | B8 |
| 0.03 | B9 |

molecular target: T4, human FcγRIIIaV extracellular domain, …; assay: as above
Procedure: as §1, §2

| KD fold for humanFcgRs (SG1 = 1) [fold] | Binder |
| --- | --- |
| 0.001 | B1 |
| 0.002 | B2 |
| 0.002 | B3 |
| 0.002 | B4 |
| 0.001 | B5 |
| 0.002 | B6 |
| 0.001 | B7 |
| 0.001 | B8 |
| 0.002 | B9 |
